Measured values reported in patent US20010052137A1, “Axin domain-like polypeptide inhibitors of glycogen synthase kinase 3 beta activity and activators of wnt signaling” (Trustees of the University of Pennsylvania, priority 2000, published 2001).

What was measured:
Xenopus embryos = test: Dorsal axis duplication / dorsalization in Xenopus embryos after mRNA injection; assay type: in vivo; details: 4 cell embryo
GSK-3 beta = test: In ovo tau phosphorylation assay: GSK-3 beta and Xaxin constructs co-expressed in Xenopus oocytes; assay type: cell-based; details: construct co-expressed with GSK-3 beta in Xenopus oocytes; tau microinjected; PHF-1 immunoblot
Method: Stage VI Xenopus oocytes were isolated by collagenase treatment (Smith et al., 1994, Meth. Cell Biol. 36:45-58) and were injected with mRNA prepared by in vitro transcription (mMessage Machine™; Ambion, Austin, Tex.). 10 nanoliters of mRNA (containing 1-2 nanograms per nanoliter) was injected for each construct (unless otherwise specified), and the injected oocytes were incubated for 16 hours at 18° C. To analyze the effects of Xaxin constructs on dorsal-ventral pattern formation, Xenopus embryos were injected with 10 nanoliters of mRNA (0.1-0.2 nanogram per nanoliter) into one dorsal or ventral cell of a 4 cell embryo and dorsal axes were assessed at the tadpole stage. For Xaxin co-immunoprecipitation, fertilized eggs were injected with 10 nanoliters of Xaxin tagged with Myc, with hemagglutinin, or with both Myc and hemagglutinin (1 nanogram per nanoliter) and harvested at the blastula stage (stage 8).
In ovo phosphorylation of tau by GSK-3 beta was performed by microinjection of tau protein into oocytes expressing GSK-3 beta and Xaxin constructs. After 90 minutes, oocytes were homogenized and tau phosphorylation was analyzed in western blots using phospho-specific antibodies as described (Hedgepeth et al., 1997, Develop. Biol. 185:82-91). In vitro assays for GSK-3 beta activity were performed as described (Klein et al., 1996, Proc. Natl. Acad. Sci. USA 93:8455-8459). Recombinant GID-2/his protein (described below) was purified by affinity chromatography and added to in vitro assays at selected concentrations.
In the experiments presented in this example, a tau phosphorylation assay (described in Hedgepeth et al., 1997, Develop. Biol. 185:82-91) was used to examine the activity of GSK-3 beta in Xenopus oocytes in the presence of full length axin and axin deletion mutants. […] Furthermore, GSK-3 beta-dependent tau phosphorylation occurs in oocytes at the same sites (tau serine residues 396 and 404) that are phosphorylated by GSK-3 beta in vitro and occurs with similarly rapid kinetics.
GSK-3 beta was expressed in oocytes together with Myc-tagged full length Xaxin or with the amino-terminal (amino acid residues 63-288), GID-1 (amino acid residues 277-545), or carboxyl-terminal (amino acid residues 429-713) fragments of Xaxin, as depicted in FIG. 1A. Purified tau protein was then microinjected into the oocytes, and phosphorylation of tau was measured by immunoblotting using antibody PHF-1 or with antibodies that detect all (i.e. phosphorylated and non-phosphorylated) forms of tau.
In order to identify the domain of axin necessary for GSK-3 beta binding, multiple Myc-tagged GID deletion constructs (shown diagrammatically in FIG. 3A) were individually expressed in Xenopus oocytes in which GSK-3 beta was also expressed. Tau protein was microinjected into the oocytes, and immunoblotting was performed using phosphorylation-state-specific tau antibodies. A parallel group of oocytes expressing GSK-3 beta and the Myc-tagged GID deletion constructs were lysed, and GID proteins were immunoprecipitated using a Myc-specific antibody. The presence or absence of GSK-3 beta in GID immunoprecipitates was detected using GSK-3 beta-specific antibodies. GID deletion constructs which included amino acid residues 380-404 of Xaxin (i.e. constructs GID-1, GID-2, GID-4, GID-5, and GID-6) bound GSK-3 beta and inhibited GSK-3 beta mediated tau phosphorylation, as indicated in FIG. 3A. […] However, changing leucine residue 392 in FIG. 3B to proline abolishes its activity.

[1] = molecular target: T1, G(alpha)q subunit of heterotrimeric G-proteins (Homo sapiens, UniProt P50148); test: Yeast two hybrid assay, interaction with G(alpha)q; assay type: binding; details: beta-galactosidase filter assay in S. cerevisiae
T1 sequence (P50148 1-359): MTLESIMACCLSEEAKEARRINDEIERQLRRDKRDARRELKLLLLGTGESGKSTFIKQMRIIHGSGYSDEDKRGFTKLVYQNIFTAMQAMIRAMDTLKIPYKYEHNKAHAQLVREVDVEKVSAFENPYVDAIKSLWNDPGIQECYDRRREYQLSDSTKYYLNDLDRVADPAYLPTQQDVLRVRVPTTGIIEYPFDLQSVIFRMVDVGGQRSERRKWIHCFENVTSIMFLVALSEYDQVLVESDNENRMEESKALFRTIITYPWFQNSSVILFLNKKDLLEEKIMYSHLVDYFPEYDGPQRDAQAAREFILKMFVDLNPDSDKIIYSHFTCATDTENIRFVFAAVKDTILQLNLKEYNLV
Description: FL Xaxin was cloned in frame with the GAL4 DNA binding domain (BD) in plasmid pAS2-1 (Clontech) to yield BD plasmid. Expression of BD plasmid yielded a Xaxin-GAL4 fusion protein. FL Xaxin, deltaDIX Xaxin, and a fragment (designated “AID”) encoding amino acid residues 489-777 of Xaxin were cloned in frame with the GAL4 transcriptional activation domain (AD) in the vector pACT2 to yield AD plasmids. Yeast were transformed with BD and AD plasmids using previously described protocols (Clontech, Palo Alto, Calif.). Transformed colonies were selected and assayed for beta-galactosidase activity in order to detect interacting proteins. In addition, three Xenopus axin partial length cDNAs (designated Y2H 2, Y2H 6, Y2H 7; all in plasmid pACT2) isolated from a previous yeast two hybrid screen (Hedgepeth et al., 1999, Mech. Develop. 80:147-151) were analyzed. Purification of GID
Using the yeast two hybrid assay, the ability of axin to bind with itself, with other members of the wnt pathway, or with the G(alpha)q subunit of heterotrimeric G-proteins, was investigated. […]
Saccharomyces cerevisiae cells were transformed with the bait vector and with one of the target vectors. Interaction was assessed using a filter assay to detect beta-galactosidase activity, as described (Fields et al., 1989, Nature 340:245-247; Harper et al., 1993, Cell 75:805-816). […]

[2] = tested on: LEF-1 dependent transcription (wnt signaling); test: LEF-luciferase reporter of wnt signaling in 293T cells; assay type: cell-based; details: 293T cells
Method: LEF-1 (also designated tcf) is a DNA-binding protein that also binds with beta-catenin. The beta-catenin/LEF-1 complex is known to activate transcription of wnt target genes. A genetic construct was made which comprised this LEF-1-binding promoter operably linked with a luciferase gene, for use as a reporter of wnt signaling.
Single plasmids encoding individual GID fragments were transfected into 293T cells, together with the LEF-luciferase reporter, and luciferase activity was measured after 24 hours. GID fragments induced up to 100- to 250-fold activation of LEF-luciferase (normalized to activity from the mutated LEF-reporter control, which was activated less than 2-fold).

B1: full length Xaxin: full length Xenopus axin, amino acid residues 1-842 (SEQ ID NO: 8) (protein, listed as Xenopus laevis)
chain: MSVKGKGFPLDLGGSFTEDAPRPPVPGEEGELITTDQRPFSHTYYSLKNDGIKNETSTATPRRPDLDLGYEPEGSASPTPPYLKWAESLHSLLDDQDGIHLFRTFLQQENCADLLDFWFACSGFRKLEPNDSKVEKRLKLAKAIYKKYVLDSNGIVSRQIKPATKSFIKDCVLRQQIDPAMFDQAQMEIQSMMEDNTYPVFLKSDIYLEYTTIGGESPKNYSDQSSGSGTGKGPSGYLPTLNEDEEWRCDQGGEHERERECIPSSLFSQKLALDSSSHCAGSNRRLSDGREFRPGTWREPVNPYYVNTGYAGAPVTSANDSEQQSMSSDADTMSLTDSSVDGIPPYRLRKHYRREMQESANANGRGPLPHIPRTYHMPKDIHVDPEKFAAELISRLEGVLRDREAEQKLEERLKRVRAEEEGDDGDVSSGPSVISHKLPSGPPMHHFNSRYSETGCVGMQIRDAHEENPESILDEHVQRVMKTPGCQSPGTGRHSPKSRSPDGHLSKTLPGSLGTMQTGHGKHSSKSTAKVDSGNLHHHKHVYHHVHHHGGVKPKEQIDGESTQRVQTNFPWNVESHNYATKSRNYAESMGMAPNPMDSLAYSGKVSMLSKRNAKKADLGKSESASHEMPVVPEDSERHQKILQWIMEGEKEIIRHKKSNHSSSSAKKQPPTELARPLSIERPGAVHPWVSAQLRNVVQPSHPFIQDPTMPPNPAPNPLTQLVSKPGARLEEEEKKAAKMPQKQRLKPQKKNVSAPSQPCDNIVVAYYFCGEPIPYRTMVKGRVVTLGQFKELLTKKGNYRYYFKKVSDEFDCGVVFEEVREDDMILPIYEEKIIGQVEKID
- effect on axial development (Xenopus embryos; mRNA injected or expressed dorsally): caused ventralization
- secondary / ectopic axis formation (Xenopus embryos; mRNA injected or expressed ventrally, scored at tadpole stage): induced formation of ectopic cement glands
- GSK-3 beta-mediated tau phosphorylation (GSK-3 beta activity) (GSK-3 beta): no discernible effect
- interaction with G(alpha)q [1]: did not interact
- activation of wnt signaling (LEF-1-binding promoter luciferase reporter) [2]: not
